Target: Recombinant myostatin
Assay: cell-based or functional assay

With “350 protein (amino acids 267-350 of bovine myostatin) (from UniProt O18836 267-350)” as the substance, how does the macrophage migration towards ZAMS medium (Boyden-type chemotaxis chamber), 5 µg/ml myostatin with 350 protein at 10 and 25 µg/ml read?
The macrophage migration towards ZAMS medium (Boyden-type chemotaxis chamber), 5 µg/ml myostatin with 350 protein at 10 and 25 µg/ml was 20 fold.

— US20080187543A1
